# T1: MPP7, Q5T2T1
# T1 sequence (Q5T2T1 134-230, limits assumed, looked up): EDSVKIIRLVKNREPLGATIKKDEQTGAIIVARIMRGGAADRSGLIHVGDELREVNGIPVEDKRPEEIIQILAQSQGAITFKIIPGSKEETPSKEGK
# T2: APBA3_1, O96018
# T2 sequence (O96018 389-490, limits assumed, looked up): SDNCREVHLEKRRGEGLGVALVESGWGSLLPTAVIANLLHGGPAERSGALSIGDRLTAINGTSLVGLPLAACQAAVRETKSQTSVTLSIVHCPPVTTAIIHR
# T3: NHERF3_4, Q5T2W1
# T3 sequence (Q5T2W1 373-468, limits assumed, looked up): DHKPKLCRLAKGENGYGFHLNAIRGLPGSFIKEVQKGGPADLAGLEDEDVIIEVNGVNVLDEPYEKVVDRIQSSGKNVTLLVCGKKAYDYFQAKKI
# T4: ARHGAP21, Q5T5U3
# T4 sequence (Q5T5U3 45-169, limits assumed, looked up): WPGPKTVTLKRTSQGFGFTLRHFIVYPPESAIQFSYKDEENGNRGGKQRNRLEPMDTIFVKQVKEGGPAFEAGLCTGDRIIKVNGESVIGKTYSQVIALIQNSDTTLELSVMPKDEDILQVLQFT
# T5: CARD11, Q9BXL7
# T5 sequence (Q9BXL7 662-765, limits assumed, looked up): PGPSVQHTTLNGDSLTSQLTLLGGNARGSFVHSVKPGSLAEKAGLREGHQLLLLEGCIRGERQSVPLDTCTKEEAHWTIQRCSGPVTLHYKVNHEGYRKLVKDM
# T6: RADIL, Q96JH8
# T6 sequence (Q96JH8 971-1071, limits assumed, looked up): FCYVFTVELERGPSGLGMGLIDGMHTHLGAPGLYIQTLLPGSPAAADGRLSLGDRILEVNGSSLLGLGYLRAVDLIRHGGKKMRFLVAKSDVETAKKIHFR
# T7: MPDZ_10, O75970
# T7 sequence (O75970 1624-1722, limits assumed, looked up): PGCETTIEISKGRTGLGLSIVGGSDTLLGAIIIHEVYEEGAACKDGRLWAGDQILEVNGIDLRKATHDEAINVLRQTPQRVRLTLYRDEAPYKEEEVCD
# T8: DVL3, Q92997
# T8 sequence (Q92997 244-331, limits assumed, looked up): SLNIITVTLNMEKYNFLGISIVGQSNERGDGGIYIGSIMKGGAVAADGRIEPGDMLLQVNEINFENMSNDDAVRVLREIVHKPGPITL
# B1: VAC14, Q08AM6 (peptide)
# chain: GDHLDRRVVL
# B2: NDE1, Q9NXR1;Q9NXR1-2 (peptide)
# chain: KSTTRSSSSC
# B3: LSM14A, Q8ND56;Q8ND56-2 (peptide)
# chain: EYRKDNKVAA
# Legend:
# Test in all cases: holdup assay
# Design in all cases: key: below the threshold = too weak to quantify, mostly under pKd 3.1 to 4
# Conditions in all cases: plain residues with an end cap or a label only (N-terminal biotin on a linker: ado-ado)
# [1] = biological target: T1, MPP7, Q5T2T1
# [2] = biological target: MAGI1_1, Q96QZ7
# Sequence of MAGI1_1, Q96QZ7 (Q96QZ7 1-106): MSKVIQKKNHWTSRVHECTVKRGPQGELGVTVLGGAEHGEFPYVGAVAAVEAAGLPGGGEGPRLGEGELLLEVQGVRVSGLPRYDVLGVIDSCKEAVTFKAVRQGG
# [3] = biological target: LNX1_1, Q8TBB1
# Sequence of LNX1_1, Q8TBB1 (Q8TBB1 261-371): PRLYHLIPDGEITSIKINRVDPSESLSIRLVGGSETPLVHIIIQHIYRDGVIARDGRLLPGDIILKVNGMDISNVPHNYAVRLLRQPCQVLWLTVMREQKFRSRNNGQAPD
# [4] = biological target: T2, APBA3_1, O96018
# [5] = biological target: GRIP2_5, Q9C0E4
# Sequence of GRIP2_5, Q9C0E4 (Q9C0E4 544-642): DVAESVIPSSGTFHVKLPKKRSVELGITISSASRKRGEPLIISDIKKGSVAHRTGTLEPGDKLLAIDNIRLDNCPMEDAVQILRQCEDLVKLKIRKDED
# [6] = biological target: SCRIB_3, Q14160
# Sequence of SCRIB_3, Q14160 (Q14160 999-1103): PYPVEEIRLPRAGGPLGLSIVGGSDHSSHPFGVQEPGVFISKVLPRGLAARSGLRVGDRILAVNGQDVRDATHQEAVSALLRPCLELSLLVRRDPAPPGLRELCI
# [7] = biological target: MAGI2_2, Q86UL8
# Sequence of MAGI2_2, Q86UL8 (Q86UL8 410-522): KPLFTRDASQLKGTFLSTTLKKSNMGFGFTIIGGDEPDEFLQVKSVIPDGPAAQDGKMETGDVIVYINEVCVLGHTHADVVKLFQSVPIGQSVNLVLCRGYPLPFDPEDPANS
# [8] = biological target: T3, NHERF3_4, Q5T2W1
# [9] = biological target: FRMPD2_3, Q68DX3
# Sequence of FRMPD2_3, Q68DX3 (Q68DX3 1073-1166): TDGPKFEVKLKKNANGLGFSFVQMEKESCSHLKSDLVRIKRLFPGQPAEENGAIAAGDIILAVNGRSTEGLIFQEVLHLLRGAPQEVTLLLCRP
# [10] = biological target: Inadl_6, Q8NI35
# Sequence of Inadl_6, Q8NI35 (Q8NI35 1058-1167): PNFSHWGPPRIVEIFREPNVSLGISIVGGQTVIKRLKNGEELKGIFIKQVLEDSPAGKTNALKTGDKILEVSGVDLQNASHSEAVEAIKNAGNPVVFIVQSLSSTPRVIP
# [11] = biological target: MAGI3_2, Q5TCQ9
# Sequence of MAGI3_2, Q5TCQ9 (Q5TCQ9 398-503): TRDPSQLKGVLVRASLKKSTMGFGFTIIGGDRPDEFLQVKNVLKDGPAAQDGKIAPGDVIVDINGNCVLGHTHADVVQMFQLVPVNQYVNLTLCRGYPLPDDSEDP
# [12] = biological target: T4, ARHGAP21, Q5T5U3
# [13] = biological target: GORASP1, Q9BQQ3
# Sequence of GORASP1, Q9BQQ3 (Q9BQQ3 1-208): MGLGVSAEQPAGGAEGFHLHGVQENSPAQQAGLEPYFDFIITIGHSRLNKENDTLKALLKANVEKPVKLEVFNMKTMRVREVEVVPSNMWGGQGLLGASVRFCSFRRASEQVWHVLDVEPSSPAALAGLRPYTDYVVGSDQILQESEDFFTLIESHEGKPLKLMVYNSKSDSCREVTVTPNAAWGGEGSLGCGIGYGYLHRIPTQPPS
# [14] = biological target: LDB3, O75112
# Sequence of LDB3, O75112 (O75112 1-94): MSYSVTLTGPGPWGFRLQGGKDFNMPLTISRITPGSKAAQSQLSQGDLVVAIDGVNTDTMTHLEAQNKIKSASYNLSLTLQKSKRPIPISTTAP
# [15] = biological target: PTPN3, P26045
# Sequence of PTPN3, P26045 (P26045 505-587): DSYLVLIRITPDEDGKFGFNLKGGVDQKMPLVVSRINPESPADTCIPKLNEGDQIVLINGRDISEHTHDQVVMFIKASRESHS
# [16] = biological target: Inadl_9, Q8NI35
# Sequence of Inadl_9, Q8NI35 (Q8NI35 1530-1615): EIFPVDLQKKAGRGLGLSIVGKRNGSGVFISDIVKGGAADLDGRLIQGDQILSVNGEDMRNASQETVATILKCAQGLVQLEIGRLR
# [17] = biological target: T5, CARD11, Q9BXL7
# [18] = biological target: NOS1, P29475
# Sequence of NOS1, P29475 (P29475 9-101): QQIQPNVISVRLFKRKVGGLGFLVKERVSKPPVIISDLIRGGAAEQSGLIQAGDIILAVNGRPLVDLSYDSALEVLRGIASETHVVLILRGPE
# [19] = biological target: LNX1_2, Q8TBB1
# Sequence of LNX1_2, Q8TBB1 (Q8TBB1 371-470): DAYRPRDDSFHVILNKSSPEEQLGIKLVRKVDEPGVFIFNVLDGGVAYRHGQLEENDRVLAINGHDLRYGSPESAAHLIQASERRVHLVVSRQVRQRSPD
# [20] = biological target: Inadl_10, Q8NI35
# Sequence of Inadl_10, Q8NI35 (Q8NI35 1673-1763): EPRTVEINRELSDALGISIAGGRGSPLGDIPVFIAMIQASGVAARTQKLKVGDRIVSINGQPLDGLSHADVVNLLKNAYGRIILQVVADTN
# [21] = biological target: FRMPD4, Q14CM0
# Sequence of FRMPD4, Q14CM0 (Q14CM0 67-160): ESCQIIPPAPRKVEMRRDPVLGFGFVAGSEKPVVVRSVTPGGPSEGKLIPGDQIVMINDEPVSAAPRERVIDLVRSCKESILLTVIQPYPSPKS
# [22] = biological target: DLG4_1, P78352
# Sequence of DLG4_1, P78352 (P78352 62-152): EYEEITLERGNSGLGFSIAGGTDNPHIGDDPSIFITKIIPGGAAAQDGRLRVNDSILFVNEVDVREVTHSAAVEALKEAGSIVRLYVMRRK
# [23] = biological target: T6, RADIL, Q96JH8
# [24] = biological target: DLG2_2, Q15700
# Sequence of DLG2_2, Q15700 (Q15700 189-283): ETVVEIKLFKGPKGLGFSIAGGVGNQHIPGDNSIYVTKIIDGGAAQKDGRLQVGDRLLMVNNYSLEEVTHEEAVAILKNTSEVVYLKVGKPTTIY
# [25] = biological target: T7, MPDZ_10, O75970
# [26] = biological target: MAGI2_4, Q86UL8
# Sequence of MAGI2_4, Q86UL8 (Q86UL8 772-865): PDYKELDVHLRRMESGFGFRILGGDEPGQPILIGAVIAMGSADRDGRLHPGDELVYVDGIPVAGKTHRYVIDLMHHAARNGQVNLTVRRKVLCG
# [27] = biological target: MAGI2_3, Q86UL8
# Sequence of MAGI2_3, Q86UL8 (Q86UL8 600-682): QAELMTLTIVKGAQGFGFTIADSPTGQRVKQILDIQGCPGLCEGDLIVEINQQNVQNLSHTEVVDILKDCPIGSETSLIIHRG
# [28] = biological target: PDZRN4_1, Q6ZMN7
# Sequence of PDZRN4_1, Q6ZMN7 (Q6ZMN7 213-318): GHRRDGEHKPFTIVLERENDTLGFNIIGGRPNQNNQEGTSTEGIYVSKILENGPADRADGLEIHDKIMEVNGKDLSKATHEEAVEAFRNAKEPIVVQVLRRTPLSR
# [29] = biological target: T8, DVL3, Q92997
# [30] = biological target: ARHGEF12, Q9NZN5-2
# Sequence of ARHGEF12, Q9NZN5-2 (Q9NZN5 other isoform, or with tags, fused parts or gaps): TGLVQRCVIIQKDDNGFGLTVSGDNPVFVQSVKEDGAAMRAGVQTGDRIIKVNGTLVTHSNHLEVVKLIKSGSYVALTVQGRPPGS
Binder,pKd [1],pKd [2],pKd [4],pKd [5],pKd [6],pKd [7],pKd [8],pKd [9],pKd [10],pKd [11],pKd [13],pKd [14],pKd [16],pKd [17],pKd [18],pKd [19],pKd [20],pKd [21],pKd [22],pKd [23],other results
B1,below the threshold,below the threshold,below the threshold,below the threshold,below the threshold,below the threshold,below the threshold,below the threshold,below the threshold,below the threshold,3.77,below the threshold,below the threshold,below the threshold,below the threshold,below the threshold,below the threshold,3.82,below the threshold,3.52,pKd [3]: below the threshold; pKd [12]: 3.54; pKd [15]: 3.92; pKd [24]: below the threshold; pKd [25]: 3.51; pKd [26]: below the threshold; pKd [27]: 3.54; pKd [28]: below the threshold; pKd [29]: below the threshold; pKd [30]: 3.61
B2,below the threshold,below the threshold,below the threshold,below the threshold,below the threshold,below the threshold,below the threshold,below the threshold,below the threshold,below the threshold,below the threshold,below the threshold,below the threshold,below the threshold,below the threshold,below the threshold,below the threshold,below the threshold,below the threshold,below the threshold,pKd [3]: below the threshold; pKd [12]: below the threshold; pKd [24]: below the threshold; pKd [25]: below the threshold; pKd [26]: below the threshold; pKd [27]: below the threshold; pKd [28]: below the threshold; pKd [29]: below the threshold; pKd [30]: 4.62
B3,below the threshold,below the threshold,below the threshold,below the threshold,below the threshold,below the threshold,below the threshold,below the threshold,below the threshold,below the threshold,below the threshold,below the threshold,below the threshold,below the threshold,below the threshold,below the threshold,below the threshold,below the threshold,below the threshold,below the threshold,pKd [15]: 3.95; pKd [26]: below the threshold; pKd [27]: below the threshold; pKd [28]: below the threshold; pKd [29]: below the threshold; pKd [30]: below the threshold

# From publication PMC9482650, “Quantitative fragmentomics allow affinity mapping of interactomes” (Nature Communications, 2022)
